Measured values from PMC7265331.

Biological target: Cab45 (UniProt Q9BRK5)
Experiment: GFP-Cab45 oligomerization assay, confocal microscopy
Conditions: reference: GFP-Cab45-WT; sites S99,T131,S142,T193,S349

Cab45 (from UniProt Q9BRK5) GFP-Cab45-5pXE
other: share of oligomers with maximum intensity <500 a.u.: same; reference 55
